Test results taken from PMC4127255.

Key:
[1] = molecular target: acetylcholine-binding protein from Aplysia californica (Ac-AChBP) (Aplysia californica); assay: non-reduced SDS-PAGE
[2] = molecular target: acetylcholine-binding protein from Aplysia californica (Ac-AChBP) (Aplysia californica); assay: SEC; […]; 50 mM NaCl, 50 mM Tris pH 8.0, 0.5 mL/min, […]

stoichiometry N [1]: 5
stoichiometry N [2]: 5
Substance: acetylcholine-binding protein from Aplysia californica (Ac-AChBP) (natural protein)
